Data from the Immune Epitope Database (IEDB).

Experiments:
Details in all cases: source organism: Vibrio vulnificus YJ016
HLA-C*03:03 = experiment: IEDB peptide-MHC binding, purified MHC/direct/fluorescence; filed as Kd, often an IC50 or EC50 that approximates it; ≥ and ≤ were set here for values at or beyond the usual limits of such assays
HLA-B*27:20 = experiment: IEDB peptide-MHC binding, purified MHC/competitive/fluorescence; filed as Kd, often an IC50 or EC50 that approximates it; ≥ and ≤ were set here for values at or beyond the usual limits of such assays
HLA-C*04:01 = experiment: as above
HLA-A*03:01 = experiment: as above
HLA-B*83:01 = experiment: as above
HLA-C*14:02 = experiment: as above
HLA-B*45:06 = experiment: as above
HLA-B*15:42 = experiment: as above
HLA-C*06:02 = experiment: as above
HLA-B*40:13 = experiment: as above

## KMFNRASYF
HLA-C*03:03
  Kd: 2720 nM
HLA-B*27:20
  Kd: 1.2 nM
HLA-C*04:01
  Kd: 304 nM
HLA-A*03:01
  Kd: 4.8 nM
HLA-B*83:01
  Kd: ≥ 5000 nM
HLA-C*14:02
  Kd: 4 nM
HLA-B*45:06
  Kd: ≥ 5000 nM
HLA-B*15:42
  Kd: ≥ 5000 nM
HLA-C*06:02
  Kd: 68 nM
HLA-B*40:13
  Kd: 2.4 nM
